In patent US6409648, “Polynucleotides encoding TRF1 binding proteins” (The Regents of the University of California):

B1: GST-Tin2-14 (Tin2 with C-terminal deletion of aa 276-354, fused to GST) (other)
chain: MATPLVAGPAALRFAAAASWQVVRGRCVEHFPRVLEFLRSLRAVAPGLVRYRHHERLCMGLKAKVVVELILQGRPWAQVLKALNHHFPESGPIVRDPKATKQDLRKILEAQETFYQQVKQLSEAPVDLASKLQELEQEYGEPFLAAMEKLLFEYLCQLEKALPTPQAQQLQDVLSWMQPGVSITSSLAWRQYGVDMGWLLPECSVTDSVNLAEPMEQNPPQQQRLALHNPLPKAKPGTHLPQGPSSRTHPEPLAGRHFNLAPLGRRRVQSQWAST
notes: not shown: GST carrier at the N end (vector pGex4X-1, Pharmacia) and its vector linker
B2: GST-Tin2 (wild-type Tin2 with glutathione-S-transferase linked to the N-terminus) (other)
chain: MATPLVAGPAALRFAAAASWQVVRGRCVEHFPRVLEFLRSLRAVAPGLVRYRHHERLCMGLKAKVVVELILQGRPWAQVLKALNHHFPESGPIVRDPKATKQDLRKILEAQETFYQQVKQLSEAPVDLASKLQELEQEYGEPFLAAMEKLLFEYLCQLEKALPTPQAQQLQDVLSWMQPGVSITSSLAWRQYGVDMGWLLPECSVTDSVNLAEPMEQNPPQQQRLALHNPLPKAKPGTHLPQGPSSRTHPEPLAGRHFNLAPLGRRRVQSQWASTRGGHKERPTVMLFPFRNLGSPTQVISNPESKEEHAIYTADLAMGTRAPSNGKYKGPYQTLGGRALKENPVDLPATEQKE
notes: also called Wild-type GST-Tin2; WT GST-Tin2; not shown: glutathione-S-transferase (GST) encoded by vector pGex4X-1 (Pharmacia), linked to the N-terminus; linker residues not gi
B3: Myc-Tin2 (Tin2 with a 13 aa c-Myc epitope at the N-terminus) (other, not shown: small tags and cut ends)
chain: B2 chain
notes: Made by in vitro translation (rabbit reticulocyte lysate, 35S-methionine) or expressed in HT1080 cells from a retrovirus
B4: GST-Tin2-12 (Tin2 with N-terminal deletion of aa 1-120, fused to GST) (other)
chain: LSEAPVDLASKLQELEQEYGEPFLAAMEKLLFEYLCQLEKALPTPQAQQLQDVLSWMQPGVSITSSLAWRQYGVDMGWLLPECSVTDSVNLAEPMEQNPPQQQRLALHNPLPKAKPGTHLPQGPSSRTHPEPLAGRHFNLAPLGRRRVQSQWASTRGGHKERPTVMLFPFRNLGSPTQVISNPESKEEHAIYTADLAMGTRAPSNGKYKGPYQTLGGRALKENPVDLPATEQKE
notes: as for B1
B5: GST-Tin2-15 (N-terminal fragment aa 1-196 of Tin2, fused to GST) (other)
chain: MATPLVAGPAALRFAAAASWQVVRGRCVEHFPRVLEFLRSLRAVAPGLVRYRHHERLCMGLKAKVVVELILQGRPWAQVLKALNHHFPESGPIVRDPKATKQDLRKILEAQETFYQQVKQLSEAPVDLASKLQELEQEYGEPFLAAMEKLLFEYLCQLEKALPTPQAQQLQDVLSWMQPGVSITSSLAWRQYGVDM
notes: not shown: glutathione-S-transferase (GST) encoded by vector pGex4X-1 (Pharmacia)
B6: [TTAGGG]13 double-stranded telomeric probe (dsDNA)
DNA 1: TTAGGGTTAGGGTTAGGGTTAGGGTTAGGGTTAGGGTTAGGGTTAGGGTTAGGGTTAGGGTTAGGGTTAGGGTTAGGG
DNA 2: CCCTAACCCTAACCCTAACCCTAACCCTAACCCTAACCCTAACCCTAACCCTAACCCTAACCCTAACCCTAACCCTAA
B7: [TTAGGG]6 probes with flanks (6X-Tel 178 bp, Bi-6X-Tel 126 bp) (dsDNA)
DNA 1: TTAGGGTTAGGGTTAGGGTTAGGGTTAGGGTTAGGG
DNA 2: CCCTAACCCTAACCCTAACCCTAACCCTAACCCTAA

Columns and labels:
[1] = biological target: T1, HA-Trf1 (Trf1 with a 10 aa hemagglutinin epitope at the N-terminus) (human, UniProt P54274 1-439); assay: EMSA with nuclear extract of HA-Trf1 expressing cells and telomeric DNA probe
T1 construct: In vitro translated (major 60 kD and minor about 40 kD products), or expressed in HT1080 cells
T1 sequence (looked up): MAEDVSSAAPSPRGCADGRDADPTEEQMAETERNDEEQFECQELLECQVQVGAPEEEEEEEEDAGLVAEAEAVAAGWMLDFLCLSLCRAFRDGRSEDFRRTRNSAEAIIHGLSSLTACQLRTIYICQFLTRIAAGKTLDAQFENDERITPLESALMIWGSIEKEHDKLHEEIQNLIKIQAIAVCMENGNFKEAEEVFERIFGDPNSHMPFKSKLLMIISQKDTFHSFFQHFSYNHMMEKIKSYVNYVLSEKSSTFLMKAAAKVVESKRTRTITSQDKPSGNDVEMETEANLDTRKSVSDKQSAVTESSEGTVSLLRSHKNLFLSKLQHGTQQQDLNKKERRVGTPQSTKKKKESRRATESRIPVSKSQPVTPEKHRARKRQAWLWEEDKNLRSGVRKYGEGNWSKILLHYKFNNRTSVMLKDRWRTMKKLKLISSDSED

[2] = biological target: B3; assay: co-immunoprecipitation with anti-GST of in vitro translated radiolabeled protein, SDS-PAGE
[3] = biological target: T2, HA-tagged hTERT protein (human telomerase catalytic subunit) (human, UniProt O14746 1-1132); assay: co-immunoprecipitation from cells
T2 construct: Transiently expressed in Myc-Tin2-expressing cells; not shown: HA tag
T2 sequence (O14746 whole entry): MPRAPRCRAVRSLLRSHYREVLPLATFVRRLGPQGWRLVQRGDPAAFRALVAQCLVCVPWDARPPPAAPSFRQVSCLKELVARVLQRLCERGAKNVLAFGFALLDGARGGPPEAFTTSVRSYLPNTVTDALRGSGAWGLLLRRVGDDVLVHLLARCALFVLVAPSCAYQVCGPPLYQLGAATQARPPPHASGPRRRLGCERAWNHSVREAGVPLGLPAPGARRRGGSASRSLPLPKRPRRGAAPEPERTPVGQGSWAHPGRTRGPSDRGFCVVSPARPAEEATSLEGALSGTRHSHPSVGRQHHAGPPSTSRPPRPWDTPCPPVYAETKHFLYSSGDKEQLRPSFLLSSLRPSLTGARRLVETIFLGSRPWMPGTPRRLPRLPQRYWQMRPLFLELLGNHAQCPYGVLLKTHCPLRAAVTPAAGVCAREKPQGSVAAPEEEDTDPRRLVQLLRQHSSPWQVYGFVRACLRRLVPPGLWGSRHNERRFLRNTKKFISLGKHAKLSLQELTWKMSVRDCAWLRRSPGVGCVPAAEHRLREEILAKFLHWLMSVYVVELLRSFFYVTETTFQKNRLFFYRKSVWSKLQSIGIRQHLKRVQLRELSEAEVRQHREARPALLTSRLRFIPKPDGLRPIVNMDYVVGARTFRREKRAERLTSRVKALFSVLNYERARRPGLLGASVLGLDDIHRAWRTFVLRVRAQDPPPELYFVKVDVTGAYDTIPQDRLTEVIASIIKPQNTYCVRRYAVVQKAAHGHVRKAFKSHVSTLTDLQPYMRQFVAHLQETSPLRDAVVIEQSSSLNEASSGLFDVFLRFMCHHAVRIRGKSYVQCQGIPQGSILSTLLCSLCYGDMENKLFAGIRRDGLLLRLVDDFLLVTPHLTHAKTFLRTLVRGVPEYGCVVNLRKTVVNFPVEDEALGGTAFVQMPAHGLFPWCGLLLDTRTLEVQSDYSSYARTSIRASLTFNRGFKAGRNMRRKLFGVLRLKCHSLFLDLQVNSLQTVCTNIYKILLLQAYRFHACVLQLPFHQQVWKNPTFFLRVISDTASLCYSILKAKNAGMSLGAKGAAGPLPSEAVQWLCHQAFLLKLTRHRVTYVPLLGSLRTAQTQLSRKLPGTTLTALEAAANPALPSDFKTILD

[4] = biological target: T1, HA-Trf1 (Trf1 with a 10 aa …); assay: co-immunoprecipitation of mixed in vitro translation products, SDS-PAGE
[5] = biological target: Trf1 (HA-Trf1, in vitro translated) (human, UniProt P54274 P54274:1-439); assay: EMSA; specific protein-DNA complex TT
Protocol: (§1) Nuclear extracts were prepared as described (Dimri et al., 1994), and dialyzed against 20 mM HEPES, pH 7.9, 100 mM KCl, 0.5 mM DTT, 0.5 mM PMSF. [TTAGGG]_6 and $[TTAGGG]13$ in pBluescript were excised, labeled using Klenow or PCR and gel purified. EMSA was performed as described (Zhong et al., 1992) in 20 ul containing 0–20 ug GST or GST-fusion proteins, 6–8 ug nuclear extract protein or 5 ul in vitro translation reaction, using a 30 min incubation at room temperature and 5% PAGE run with 1× Tris-borate-EDTA buffer.
This was true whether Tin2 was translated in vitro, purified from *E. coli* as a GST-fusion protein, or purified from baculovirus infected insect cells as a 6-histidine (6his)-tagged protein. […] In contrast, Trf1, whether translated in vitro or in nuclear extracts from HA-Trf1 overexpressing cells, formed a specific protein-DNA complex (Chong et al., 1995). Since Trf1 binds DNA as a homodimer (Bianchi et al., 1997), this complex was designated TT. To determine whether Tin2 interacts with this complex, WT or mutant GST-Tin2 proteins were added to nuclear extracts from HA-Trf1 expressing cells.

Trf1 + Tin2 complex [6] = biological target: T3, Trf1 + Tin2 complex (human, UniProt P54274;Q9BSI4-2 P54274:1-439,Q9BSI4-2:1-354); assay: EMSA; all TT shifted to TT-AAX; nuclear extract slightly enhances; conditions: tags: 6his on both, baculovirus/Sf9; chain copies: 2 Trf1 + 2 Tin2 in TT-AA (stated as likely)
Protocol: as §1
(§2) To determine the nature of TT-AAX, DNA complexes formed by purified proteins were examined. 6his-tagged Trf1 and Tin2 were produced and purified from baculovirus-infected cells. […] Moreover, 6his-Tin2, added in increasing amounts to 6his-Trf1 and probe, shifted all the TT to TT-AAX . Since 6his-Tin2 formed more TT-AAX than GST-Tin2, the GST moiety may reduce TT-AAX formation or stability. Nuclear extract had only a small effect on TT-AAX formation. […] Addition of 6his-Trf1 produced TT, and 6his-Tin2 shifted all the TT to TT-AAX. However, somewhat more TT-AAX was formed in the presence of nuclear extract than its absence. Thus, TT-AAX required only Trf1, Tin2 and telomeric DNA, but other nuclear proteins might enhance its formation or stability.

Trf1 (6his-Trf1) [7] = biological target: T4, Trf1 (6his-Trf1) (human, UniProt P54274 P54274:1-439); assay: EMSA; single TT complex; probe not restated, taken as [TTAGGG]13; conditions: tags: 6his, baculovirus/Sf9; chain copies: 2 (homodimer, stated)
Protocol: as §1, §2

Trf1 (6his-Trf1) [8] = biological target: T4, Trf1 (6his-Trf1); assay: EMSA; TT plus minor TT**, TT*** and small amount of TT-AAX; Trf1 alone induces probe-probe pairing; conditions: tags: 6his, baculovirus/Sf9; chain copies: 2 (homodimer, stated); label: 32P (6X-Tel); 5' biotin (Bi-6X-Tel)
Protocol: (§3) 6his-Trf1 (150 ng) and increasing amounts of 6his-Tin2 were incubated with a double stranded TTAGGG_6 probe, and protein-DNA complexes were analyzed by EMSA. Probes containing [TTAGGG]_6 and flanking sequences were synthesized by PCR. 6X-Tel was 178 bp, and labeled with ^32P (*). Bi-6X-Tel was 126 bp, biotinylated at a 5' end, and either labeled (*) or unlabeled. The 6X-Tel probe was incubated with labeled or unlabeled Bi-6X-Tel probe, and 6his-Trf1 (150 ng), 6his-Tin2 (60 ng), GST (100 ng), GST-Tin2–13 (100 ng) and/or 100 fold excess unlabeled [TTAGGG]_7, followed by incubation with streptavidin-agarose beads. The beads were collected, and components released and analyzed by PAGE. Signals were quantified using a phosphorimager and ImageQuant. Reaction mixtures were analyzed by EMSA.
Under these optimized conditions, Trf1 alone formed a small amount of TT-AAX which was greatly stimulated by Tin2. Also under these conditions, Trf1 alone formed two minor complexes that are likely due to two (TT) and three (TT*) Trf1 homodimers loaded onto the probe (Bianchi et al., 1997). The Tin2–13 mutant supershifted all three TT complexes, as expected from its ability to bind Tfr1.

Trf1 + Tin2 complex [9] = biological target: T3, Trf1 + Tin2 complex; assay: pulldown; probe pairing (6X-Tel/labeled Bi-6X-Tel) over Trf1 alone; 4-5 fold with unlabeled Bi-6X-Tel; abolished by excess unlabeled [TTAGGG]7; conditions: tags: 6his on both, baculovirus/Sf9; chain copies: 2 Trf1 + 2 Tin2 in TT-AA (stated as likely); label: 32P (6X-Tel); 5' biotin (Bi-6X-Tel)
Protocol: The 178 bp probe (6X-Tel) and the 126 bp probe (Bi-6X-Tel) were used either labeled or unlabeled. The probes were mixed together, incubated with purified 6his-proteins under optimized conditions, and Bi-6X-Tel probes were collected on streptavidin-agarose beads, as described below. […] Released labeled probes were identified by PAGE.
as §3
In the absence of protein or presence of Tin 2 alone, virtually no 6X-Tel probe, and very little labeled Bi-6X-Tel was released. […] Trf1 alone increased the amount of both 6X-Tel and labeled Bi-6X-Tel that were released. […]

Binder: B1
- binding result [1]: binds

Binder: B2
- binding result [1]: binds
- binding result [2]: no binding

Binder: B3
- binding result [3]: no binding
- binding result [4]: binds

Binder: B4
- binding result [1]: binds

Binder: B5
- binding result [1]: no binding

Binder: B6
- binding result [5]: binds
- binding result (Trf1 + Tin2 complex [6]): binds
- binding result (Trf1 (6his-Trf1) [7]): binds

Binder: B7
- binding result (Trf1 (6his-Trf1) [8]): binds
- binding result (Trf1 + Tin2 complex [9]): binds
